Data published in US20120308575A1.

Legend:
[1] = molecular target: recombinant human TNF-α (Product 210-TA-050, R&D) (human) (UniProt P01375); assay: cell-based or functional assay
[2] = molecular target: recombinant human TNF-α (Product 210-TA-050, R&D) (human) (UniProt P01375); assay: SPR, Biacore T100, TNFα amine-coupled to CM5 chip, antibody in flow
[3] = molecular target: recombinant human TNF-α (Product 210-TA-050, R&D) (human) (UniProt P01375); assay: flow cytometry competition: FITC-TNF-α (100 ng/ml) on U937 cells, antibody titrated; average of 3
[4] = molecular target: recombinant human TNF-α (Product 210-TA-050, R&D) (human) (UniProt P01375); assay: flow cytometry competition: FITC-TNF-α (100 ng/ml) on U937 cells, antibody titrated; experiment 1
[5] = molecular target: recombinant human TNF-α (Product 210-TA-050, R&D) (human) (UniProt P01375); assay: flow cytometry competition: FITC-TNF-α (100 ng/ml) on U937 cells, antibody titrated; experiment 2
[6] = molecular target: recombinant human TNF-α (Product 210-TA-050, R&D) (human) (UniProt P01375); assay: flow cytometry competition: FITC-TNF-α (100 ng/ml) on U937 cells, antibody titrated; experiment 3
[7] = molecular target: recombinant human TNF-α (Product 210-TA-050, R&D) (human) (UniProt P01375); assay: competition ELISA: biotin-TNF-α (10 ng/ml) on coated P75 receptor-Fc, antibody titrated; average of 3
[8] = molecular target: recombinant human TNF-α (Product 210-TA-050, R&D) (human) (UniProt P01375); assay: competition ELISA: biotin-TNF-α (10 ng/ml) on coated P75 receptor-Fc, antibody titrated; experiment 1
[9] = molecular target: recombinant human TNF-α (Product 210-TA-050, R&D) (human) (UniProt P01375); assay: competition ELISA: biotin-TNF-α (10 ng/ml) on coated P75 receptor-Fc, antibody titrated; experiment 2
[10] = molecular target: recombinant human TNF-α (Product 210-TA-050, R&D) (human) (UniProt P01375); assay: competition ELISA: biotin-TNF-α (10 ng/ml) on coated P75 receptor-Fc, antibody titrated; experiment 3

recombinant human TNF-α (Product 210-TA-050, R&D) (human), sequence (P01375 77-233 limits assumed): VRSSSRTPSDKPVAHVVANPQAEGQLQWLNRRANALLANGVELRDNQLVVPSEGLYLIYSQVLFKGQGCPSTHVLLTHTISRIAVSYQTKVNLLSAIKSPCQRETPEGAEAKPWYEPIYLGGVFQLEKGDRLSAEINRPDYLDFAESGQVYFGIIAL

Increase in Body Temperature of Rabbits (rhTNF-α 5 µg/kg i.v. mixed with antibody 500 µg/kg; 60 min) [1]: 0 ° C. | Kd [2]: 0.63 nM | IC50 [3]: 7.36 mg/L | IC50 [4]: 6.62 mg/L | IC50 [5]: 8.03 mg/L | IC50 [6]: 7.44 mg/L | IC50 [7]: 2.35 mg/L | IC50 [8]: 2.3 mg/L | IC50 [9]: 2.15 mg/L | IC50 [10]: 2.59 mg/L
Substance: fully human antibody adalimumab (Humira, D2E7, commercial product)
IC50 of resistance to TNF-α-mediated killing of L929 cells (MTS), average [1]: 0.316 mg/L | IC50 of resistance to TNF-α-mediated killing of L929 cells (MTS), experiment 1 [1]: 0.296 mg/L | IC50 of resistance to TNF-α-mediated killing of L929 cells (MTS), experiment 2 [1]: 0.335 mg/L | IC50 of resistance to TNF-α-mediated killing of L929 cells (MTS), experiment 3 [1]: 0.318 mg/L | Survival Status of Mice (rhTNF-α 1 µg + D-galactosamine 20 mg; antibody 1 µg i.p. 30 min before) [1]: 20% | Survival Status of Mice (rhTNF-α 1 µg + D-galactosamine 20 mg; antibody 2 µg i.p. 30 min before) [1]: 40% | Survival Status of Mice (rhTNF-α 1 µg + D-galactosamine 20 mg; antibody 4 µg i.p. 30 min before) [1]: 40% | Survival Status of Mice (rhTNF-α 1 µg + D-galactosamine 20 mg; antibody 6 µg i.p. 30 min before) [1]: 50% | Survival Status of Mice (rhTNF-α 1 µg + D-galactosamine 20 mg; antibody 8 µg i.p. 30 min before) [1]: 60%
